Data as given in patent publication US12162911B2, “Pulmonary administration of pyocins for treating bacterial respiratory infections” (priority 2014, dated 2024).

B1: Pyocin L1: lectin-like pyocin, SEQ ID NO: 24; receptor believed to be common polysaccharide antigen of LPS (protein, listed as Pseudomonas aeruginosa)
chain: MASSLAPRQVIRDGQFITSPNGKYKLVMQADGNLVLYEDGTKPIWNTTPVGPGAKAVMEFNLNLYNKAGQVAWSSNVYTAYLFEEFKDEAYLNLQDDGDFGIFSDEAKWGSIVLSRPEVGVKNKIIPTGTVMVPGTEYINGNYRLAFQGDGNLVIYQINPQVVIWATYTMGADRAVVQEDGNFVIYKGTTALWHTHTATGMPAYLKFTNTGKLFLSQPTLLWTLKRGSLSKPPKVIPGQHGPLDTTPIWSWPHDYP
B2: Pyocin AP41: S-type pyocin, SEQ ID NO: 18; effector has DNase activity (protein, listed as Pseudomonas aeruginosa)
chain: MSDVFDLGSMTTVATATGQYSFYTPPPPTPIPYLTYIARPGINKFDLPEGAKIKDLIKRYQYIGSQIPAAIMIRGVQEEIKKSTNTALANVGAIVDGELAYLASQKKEKLNPAEATPLQMASAEKAAAVELLASKQKELADARTIANAFFGYDPLTVNYVNVMNEIYGRREDKDFSFDNWSKSYSAAQKIRLIEAKISVLNSRSSALDGKVAELTRLQRLEDAQHAAEAARQTEAERLAQEQRQAEARRQAEEARRQAEAQRQAELQRLAEAEAKRVAEAEKKRQDEINARLQAIVVSESEAKRIEEIYKRLEEQDKISNPTVTTPPAVDAGSRVDDALAHTGTRVTSGGETGATGGSGRDVDTGTGQGGITARPVDVGSVSIPDRRDPKIPDQPRRDLGSLVPTFPDFPTFPSFPGVGVPAAAKPLIPAGGGAASVSRTLKTAVDLLSVARKTPGAMLGQVAAVVATMAVSSFWPKLNNGERQASFAIPVAELSPPLAVDWQAIAAAKGTVDLPYRLKTLNVDGSIQIIAVPTEPGSAAVPVRALTLDSASGTYKYTTTGPGGGTILVTPDTPPGQIDPSSSTPAVPRGPLIMPGTLLIPKEPQIESYPELDQREFNDGIYVYPEDSGIPPLYIVYRDPRDEPGVATGNGQPVTGNWLAGASQGDGVPIPSQIADQLRGKEFKSWRDFREQFWMAVSKDPSALENLSPSNRYFVSQGLAPYAVPEEHLGSKEKFEIHHVVPLESGGALYNIDNLVIVTPKRHSEIHKELKLKRKEK
B3: Pyocin SD2: S-type pyocin, SEQ ID NO: 7; targeting domain binds LPS common polysaccharide antigen (protein, listed as Pseudomonas aeruginosa)
chain: MAVNDYEPGSMVITHVQGGGRDIIQYIPARSSYGTPPFVPPGPSPYVGTGMQEYRKLRSTLDKSHSELKKNLKNETLKEVDELKSEAGLPGKAVSANDIRDEKSIVDALMDAKAKSLKAIEDRPANLYTASDFPQKSESMYQSQLLASRKFYGEFLDRHMSELAKAYSADIYKAQIAILKQTSQELENKARSLEAEAQRAAAEVEADYKARKANVEKKVQSELDQAGNALPQLTNPTPEQWLERATQLVTQAIANKKKLQTANNALIAKAPNALEKQKATYNADLLVDEIASLQARLDKLNAETARRKEIARQAAIRAANTYAMPANGSVVATAAGRGLIQVAQGAASLAQAISDAIAVLGRVLASAPSVMAVGFASLTYSSRTAEQWQDQTPDSVRYALGMDANKLGLTSSVNLSAVAKAGGTVDLPMRLTNEARGNTTTLSVVSTDGVSVPKAAPVRMAAYNATTGLYEVTVPSTTAEAPPLILTWTPASPPGNQNPSSTTPVIPKPVPVYEGAALTPLKTGPESYPGMLLDLNDLIVIFPADSGVKPVYVMLSSPLDSGIFTRRQLQKKFDSHKYDFGLGEKSANNGTLAEFRDKILEHLADPATVEKGTYHSEVNSKVHYNARTNIVVIIGEDGMFVSGWRIEPGTDQYNFYMKNEVL

Key:
P. aeruginosa P8 = assay: Mouse model of acute lung infection, P. aeruginosa P8; format: in vivo, Pseudomonas aeruginosa; conditions: for Lowest active concentration tested: lowest concentration tested with which the treated mice survived to 24 h; for Corresponding molarity: molarity of lowest active concentration tested; for reduction of bacterial load in lung: 3 mg ml^−1 intranasal 1 h post-infection, culled 4.5 h post-infection (FIG. 1c); for reduction of bacterial numbers in lung: C57/BL6 mice, 3 mg ml^−1 intranasal 6 h pre-infection, culled 4 h post-infection (FIG. 1a)
Experimental: Study design. […] For all experiments 6 week-old, female, murine pathogen free C57/BL6 mice weighing 15-21 g were used (Charles Rivers Laboratories, UK). All mice received food and water ad libitum and were housed in groups during the experiments. Power calculations were used to predetermine sample size (n=6, for all treatment experiments). Mice were culled when required as determined by a scoring system or culled at the pre-determined 24 h time point. All mice, including outliers were included in the statistical analysis. Experiments were either carried out once only or repeated once (defined for each experiment).
(§1) Model of acute lung infection. Female C57/BL6 mice were inoculated intranasally with 25 μl of bacterial culture containing approximately 10^7 CFU of the selected P. aeruginosa strain^36. Antibiotic treatments were administered at either 6 h pre-infection or 1 h post-infection and were administered only once. Pyocins or tobramycin dissolved in PBS were administered via intranasal administration as described above. Two different end-points were used in these experiments. In order to determine a reduction in the bacterial load of the lungs compared to the untreated controls, all mice in the experiment were culled by carbon dioxide asphyxiation at the same time; 4-6 h post infection. To determine if mice could survive infection after pyocin or tobramycin treatment, mice were monitored closely, culled by carbon dioxide asphyxiation when required as determined by a scoring system or culled at the pre-determined 24 h time point. Uninfected mice, treated with pyocins, were used as controls in the first series of experiments in order to ensure no adverse effects from pyocin treatment. These controls were stopped in later experiments in order to reduce the number of animals used, once it was clear that the pyocins were not harmful. For CFU determination, lungs were removed aseptically and kept on ice in 750 μl of PBS until homogenised. Serial 10-fold dilutions of the homogenised lung were plated on Pseudomonas selective agar (20 g peptone, 1.5 g K2HPO4, 1.5 g MgSO4·7H2O, 10 ml glycerol, 15 g agar, 0.025 g Irgasan per litre) and incubated at 37° C. for 24 h and then room temperature for 24 h before the colonies were counted.

[1] = tested on: P. aeruginosa P5 (mucoid); assay: Mouse model of acute lung infection, P. aeruginosa P5; format: in vivo, Pseudomonas aeruginosa; conditions: for survival / protection: pyocin 3 mg ml^−1, endpoint 24 h, infected controls culled at 4.5 h; for bacterial count in lung, P5: pyocin 3 mg ml^−1, treated mice survived to 24 h, no treatment 1.7 × 10^5 CFU/lung
Experimental: as §1
(§2) Since strains of P. aeruginosa are phenotypically diverse, we tested the efficacy of the pyocins against three additional isolates: P. aeruginosa P17 and P. aeruginosa P5 (mucoid), both from cystic fibrosis patients and P. aeruginosa E2, an environmental isolate. Pyocin S2 was not active against P. aeruginosa P5 or P. aeruginosa E2 in vitro therefore was not used to treat these strains in vivo and similarly pyocin L1 was not used against P. aeruginosa P17. […] Lung homogenates from P. aeruginosa E2-infected AP41-treated mice contained high levels of viable bacteria, reduced only 10-fold relative to control mice (Table 1). […] Thus, pyocins show strong efficacy against diverse strains of P. aeruginosa with pyocin S5 treatment displaying the largest effect on reducing bacterial load.

P8AP41T [2] = assay: Pyocin sensitivity in vitro (spot tests) of strain P8AP41T; format: cell-based, Pseudomonas aeruginosa
Experimental: Pyocin sensitivity assays: overlay spot plate method. Soft agar overlay spot plates were performed using the method of ^35. 150 μl of test strain culture at OD600 nm=0.6 was added to 6 ml of 0.8% soft agar and poured over an LB agar plate. 5 μl of bacteriocin, lung homogenate or blood at varying concentrations was spotted onto the plates and incubated for 24 h at 37° C.
(§3) In order to determine if pyocin tolerance or resistance was acquired upon pyocin treatment in vivo, viable bacteria recovered from mice that survived infection to the 24 h end-point, in all experiments discussed in this work, were tested for pyocin susceptibility. From these experiments no pyocin resistant colonies were isolated. […] Importantly, sensitivity to pyocins S5 and L1 were unaffected in vitro in this pyocin AP41-tolerant strain (FIG. 3a) and this was also shown to be the case in vivo when mice were infected with P8AP41T.

P8AP41T [3] = assay: Mouse model of acute lung infection, AP41 tolerant strain P8AP41T; format: in vivo, Pseudomonas aeruginosa; conditions: 3 mg ml^−1 1 h post-infection; for bacterial numbers in lung homogenates: 24 h (FIG. 3b); for survival: endpoint 24 h, PBS controls culled 6 h post-infection (FIG. 3b)
Experimental: as §1, §3

P. aeruginosa E2 = assay: Mouse model of acute lung infection, P. aeruginosa E2; format: in vivo, Pseudomonas aeruginosa; conditions: for survival / protection: pyocin 3 mg ml^−1, endpoint 24 h, infected controls culled at 5.5 h
Experimental: as §1, §2

[4] = tested on: collection of diverse environmental and clinical isolates; assay: Activity against a collection of diverse environmental and clinical isolates; format: cell-based, Pseudomonas aeruginosa
P. aeruginosa P17 = assay: Mouse model of acute lung infection, P. aeruginosa P17; format: in vivo, Pseudomonas aeruginosa
Experimental: as §1, §2

P. aeruginosa PA01 = assay: Mouse model of acute lung infection, P. aeruginosa PA01; format: in vivo, Pseudomonas aeruginosa
Experimental: as §1, with “Uninfected mice, treated with pyocins, were used as controls in the first series of experiments in order to ensure no adverse effects from pyocin treatment. These controls were stopped in later experiments in order to reduce the number of animals used, once it was clear that the pyocins were not harmful. For CFU determination, lungs were removed aseptically and kept on ice in 750 μl of PBS until homogenised.” left out
A similar experiment was performed using pyocin SD2. […] The bacterial load of the lungs was determined and control mice had approx 2×10^5 CFU/lung, 6 h after infection.

| Molecule | Lowest active concentration tested (P. aeruginosa P8) | Corresponding molarity (P. aeruginosa P8) | survival / protection [1] | bacterial count in lung, P5 [1] | reduction of bacterial load in lung (P. aeruginosa P8) | reduction of bacterial numbers in lung (P. aeruginosa P8) | bacterial numbers in lung homogenates (P8AP41T [3]) | survival (P8AP41T [3]) | survival / protection (P. aeruginosa E2) | further results |
| --- | --- | --- | --- | --- | --- | --- | --- | --- | --- | --- |
| NC[C@H]1O[C@H](O[C@H]2[C@H](O)[C@@H](O[C@H]3O[C@H](CO)[C@@H](O)[C@H](N)[C@H]3O)[C@H](N)C[C@@H]2N)[C@H](N)C[C@@H]1O [Tobramycin, tobramycin, reference compound] | 300 µg/mL | 641 µM |  |  |  |  |  |  |  | survival (P. aeruginosa P8; 300 μg ml^−1, 1 h post-infection (FIG. 2b)): survived to 24 h; bacterial counts compared to the PBS controls (P. aeruginosa P8; 300 μg ml^−1, 24 h post-infection (FIG. 2b)): significantly reduced the bacterial counts |
| B1 | 30 µg/mL | 1.06 µM | survived until the 24 h endpoint | 40 CFU/lung | approximately 20 fold | ~1500 fold | significantly reduced bacterial numbers | survived until the endpoint of the experiment at 24 h | survived until the 24 h endpoint | sensitivity of the pyocin AP41-tolerant strain in vitro (P8AP41T [2]; spot tests, FIG. 3a): unaffected; mice culled at 6 h post-infection due to the severity of symptoms (P. aeruginosa P8; 30 μg ml^−1, six mice): three of the six; survival (P. aeruginosa P8; 300 μg ml^−1, endpoint 24 h post-infection): survived until the endpoint of the experiment at 24 h post-infection; bacterial count in lung, E2 (P. aeruginosa E2; pyocin 3 mg ml^−1, treated mice survived to 24 h, no treatment 1.5 × 10^5 CFU/lung): No colonies |
| B2 | 30 µg/mL | 0.319 µM | successful | No colonies | ~130 fold | ~650 fold | significantly reduced bacterial numbers | survived until the endpoint of the experiment at 24 h | failed to afford protection | strains against which active [4]: 87%; increased tolerance of isolate P8AP41T (P8AP41T [2]; single isolate from pyocin AP41 (3 mg ml^−1 post-infection) treated bacteria): approximately 1000 fold; susceptibility of P8AP41T during infection (P8AP41T [2]; strain recovered from untreated control mice (P8AP41T*), FIG. 3a): remained tolerant; bacterial count in lung, P17 (P. aeruginosa P17; 1 mouse that coughed up the treatment, culled at 4 h post-infection): ^+1 mouse coughed up AP41 treatment and was culled at 4 h post-infection, bacterial count 1.3 × 10^5 CFU/lung.; survival / protection (P. aeruginosa P17; pyocin 3 mg ml^−1, endpoint 24 h, infected controls culled at 4 h): five out of six; bacterial count in lung, P17 (P. aeruginosa P17; pyocin 3 mg ml^−1, treated mice survived to 24 h, no treatment 4.4 × 10^5 CFU/lung): No colonies; survival (P. aeruginosa P8; 300 μg ml^−1 and 30 μg ml^−1 (both concentrations), endpoint 24 h post-infection): survived until the endpoint of the experiment at 24 h post-infection; reduction of viable bacteria in lung homogenates relative to control mice (P. aeruginosa E2; pyocin 3 mg ml^−1, culled at 5.5 h post-infection): 10 fold; bacterial count in lung, E2 (P. aeruginosa E2; pyocin 3 mg ml^−1, mice culled at same time as control (5.5 h post-infection)): 1.3 × 10^4 CFU/lung |
| B3 |  |  |  |  |  |  |  |  |  | bacterial load of the lungs (P. aeruginosa PA01; 3 mg ml^−1 1 h post-infection, 24 h post-infection, control approx 2×10^5 CFU/lung at 6 h): no colonies or 10; survival (P. aeruginosa PA01; C57/BL6 mice, 3 mg ml^−1 intranasal 1 h post-infection, endpoint 24 h (FIG. 7)): survived to the endpoint of the experiment at 24 h |
